Laboratory results taken from US20210388108A1 (GLYCARDIAL DIAGNOSTICS S L, published 2021).
No end group written: not given here. *: point of attachment. Biotin = O=C1N[C@H]2[C@H](CS[C@H]2CCCCC(=O)*)N1; GlcNAc = N-acetylglucosamine

T1: Ag1G (Bio-REIRHN(GlcNAc)STGC)
T1 peptide: Biotin-REIRHN(GlcNAc)STGC

T2: Ag4G (Bio-EEFLN(GlcNAc)QSSP)
T2 peptide: Biotin-EEFLN(GlcNAc)QSSP


Tests used:
[1] = biological target: T1, Ag1G (Bio-REIRHN(GlcNAc)STGC); assay: QC ELISA of the IgG on its target peptide
[2] = biological target: T2, Ag4G (Bio-EEFLN(GlcNAc)QSSP); assay: QC ELISA of the IgG on its target peptide

Row | Binder | binding result [1] | binding result [2]
1 | Ag1G-11 (antibody, V domains shown, Rabbit/human chimeric clone from a Fab phage library; tested 'in the form of IgG'; the FWR4 entries as printed run on into human C kappa (light) and human CH1 plus His tag (heavy), i.e. the Fab format; also called Apo J-GlcNAc Ag1G-11) VH: QSLEESGGRLVTPGGSLTLTCTVSGFSLSSYAMSWVRQAPGKGLEWIGIIGVNGDTYYASWAKGRFTISKTSTTVGLKITSPTTEDTATYFCARVRYPYYDTDAFDPWGPGTLVTISS VL: DPVLTQTPSPVSAAVGGTVTINCQASQSVYNNNELSWYQQKPGQPPKPLIYQASKLASGVPSRFKGSGSGTQFTLTISDLECDDAATYYCQGIYLGSDWYDVFGGGTEVVVKR | binds | –
2 | Ag4G-6 (antibody, V domains shown, Rabbit/human chimeric clone from a Fab phage library; tested 'in the form of IgG'; the FWR4 entries as printed run on into human C kappa (light) and human CH1 plus His tag (heavy), i.e. the Fab format; also called Apo J-GlcNAc Ag4G-6) VH: QQLEESGGRLVTPGTPLTLTCTASGMDLSKYWMTWVRQAPGKGLEYIGIIETGGSAYYASWAKGRFTISRTSTTVDLKMISPTTEDTATYFCGRWGDIWGPGTLVTVSS VL: MTQTPASVEVAVGGTVTIKCQASQSINGYLAWYQQKPGQPPKLLIYQASTLASGVSSRFQGSGSGTEYTLTISGVQCDDAATYYCQGDYYGWIRTFGGGTEVVVKR | – | binds
